Source: patent US20120058906A1 (published 2012)

Columns and labels:
[1] = molecular target: T1, rHuman Notch-1/Fc Chimera, CF (R&D Systems Cat#3647-TK) (human, UniProt P46531 19-526); experiment: ECL (MSD Multi-Spot) binding, antigen spotted on plate; Fab 500 nM
T1 construct: Bought Fc chimera; Fc part of the bought chimera not given

[2] = molecular target: T2, rHuman IGF-1 sR, CF (R&D Systems Cat#391-GR) (human, UniProt P08069 31-932); experiment: as above
T2 construct: Bought soluble receptor; also called insulin-like growth factor-1 soluble receptor; IGF-R1

[3] = molecular target: T3, rHuman Erythropoietin R/Fc Chimera, CF (R&D Systems Cat#963-ER) (human, UniProt P19235 25-250); experiment: as above
T3 construct: Bought Fc chimera; also called EPO R/Fc; erythropoietin receptor; Fc part of the bought chimera not given
T3 sequence: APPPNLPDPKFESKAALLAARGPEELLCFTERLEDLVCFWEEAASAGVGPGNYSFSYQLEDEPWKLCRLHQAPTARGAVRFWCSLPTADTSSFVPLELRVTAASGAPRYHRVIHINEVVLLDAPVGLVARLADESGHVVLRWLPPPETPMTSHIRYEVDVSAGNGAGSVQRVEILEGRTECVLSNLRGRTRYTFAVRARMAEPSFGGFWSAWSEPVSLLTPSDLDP

[4] = molecular target: T4, Recombinant Human DLL4 (R&D Systems Cat#1506-D4/CF) (human, UniProt Q9NR61 27-524); experiment: as above
T4 construct: Bought recombinant protein; also called delta-like protein 4

[5] = molecular target: T5, rHuman CD44/Fc Chimera, CF (R&D Systems Cat#3660-CD) (human, UniProt P16070 21-220); experiment: as above
T5 construct: Bought Fc chimera; Fc part of the bought chimera not given

[6] = molecular target: T6, rHuman P-Cadherin/Fc Chimera, CF (R&D Systems Cat#861-PC) (human, UniProt P22223 108-654); experiment: as above
T6 construct: Bought Fc chimera; Fc part of the bought chimera not given

[7] = molecular target: T1, rHuman Notch-1/Fc Chimera, CF (R&D …); experiment: ECL (MSD Multi-Spot) binding, antigen spotted on plate; Fab 25 nM
[8] = molecular target: T2, rHuman IGF-1 sR, CF (R&D Systems …); experiment: as above
[9] = molecular target: T3, rHuman Erythropoietin R/Fc Chimera, CF …; experiment: as above
[10] = molecular target: T4, Recombinant Human DLL4 (R&D Systems …); experiment: as above
[11] = molecular target: T5, rHuman CD44/Fc Chimera, CF (R&D Systems …); experiment: as above
[12] = molecular target: T6, rHuman P-Cadherin/Fc Chimera, CF (R&D …); experiment: as above
[13] = molecular target: T1, rHuman Notch-1/Fc Chimera, CF (R&D …); experiment: ECL (MSD Multi-Spot) binding, antigen spotted on plate; Fab 1.25 nM
[14] = molecular target: T2, rHuman IGF-1 sR, CF (R&D Systems …); experiment: as above
[15] = molecular target: T3, rHuman Erythropoietin R/Fc Chimera, CF …; experiment: as above
[16] = molecular target: T4, Recombinant Human DLL4 (R&D Systems …); experiment: as above
[17] = molecular target: T5, rHuman CD44/Fc Chimera, CF (R&D Systems …); experiment: as above
[18] = molecular target: T6, rHuman P-Cadherin/Fc Chimera, CF (R&D …); experiment: as above
[19] = molecular target: T1, rHuman Notch-1/Fc Chimera, CF (R&D …); experiment: ECL (MSD Multi-Spot) binding, antigen spotted on plate; Fab 0.0625 nM
[20] = molecular target: T2, rHuman IGF-1 sR, CF (R&D Systems …); experiment: as above
[21] = molecular target: T3, rHuman Erythropoietin R/Fc Chimera, CF …; experiment: as above
[22] = molecular target: T4, Recombinant Human DLL4 (R&D Systems …); experiment: as above
[23] = molecular target: T5, rHuman CD44/Fc Chimera, CF (R&D Systems …); experiment: as above
[24] = molecular target: T6, rHuman P-Cadherin/Fc Chimera, CF (R&D …); experiment: as above
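Also: blank spot per well as comparator with Hit at signal to blank ratio of 4 or more.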

B1: Fab VH5-51_IGHD5-18*01>3_IGHJ4*01_G100K_G104T & V3-4_IGLJ1*01 (Fab, V domains shown)
VH: EVQLVQSGAEVKKPGESLKISCKGSGYSFTSYWIGWVRQMPGKGLEWMGIIYPGDSDTRYSPSFQGQVTISADKSISTAYLQWSSLKASDTAMYYCARRKYSYTYDYFDYWGQGTLVTVSS
VL: QTVVTQEPSFSVSPGGTVTLTCGLSSGSVSTSYYPSWYQQTPGQAPRTLIYSTNTRSSGVPDRFSGSILGNKAALTITGAQADDESDYYCVLYMGSGISYVFGTGTKVTVL
notes: Fab made in E. coli
ECL signal [1]: 703
ECL signal [2]: 1110
ECL signal [3]: 828
ECL signal [4]: 25900
ECL signal [5]: 923
ECL signal [6]: 815
ECL signal [7]: 440
ECL signal [8]: 780
ECL signal [9]: 597
ECL signal [10]: 77900
ECL signal [11]: 570
ECL signal [12]: 269
ECL signal [13]: 312
ECL signal [14]: 674
ECL signal [15]: 448
ECL signal [16]: 38800
ECL signal [17]: 444
ECL signal [18]: 374
ECL signal [19]: 439
ECL signal [20]: 537
ECL signal [21]: 332
ECL signal [22]: 1010
ECL signal [23]: 394
ECL signal [24]: 331
